Measured values as given in patent US20120045438A1 (Janssen / Centocor, published 2012).

These binders were tested against T1, human IL-13 R130Q variant (R110Q of the mature chain) (human, UniProt P35225 35-146, Biotinylated on amines (NHS-LC-biotin, 4:1) in ELISA, panning and competition assays. The letters are unchanged.) (assay: single-point (10 nM) phage Fab ELISA on biotinylated IL-13 R130Q).
T1 construct: R130Q counts from Met 1 of the signal peptide, R110Q on the mature chain; Bought from Peprotech; also called IL-13 R110Q; b-R130Q

| Binder | % of Lc16Hc7 [%] |
| --- | --- |
| Phage # 30 Fab (IL-13-142 library) (Fab, V domains shown, Fab on phage pIX) VH: QVTLKESGPVLVKPTETLTLTCTVSGFSLSTYGMGVGWIRQPPGKALEWLAHIWWDDVKRYNPALKSRLTISKDTSKSQVVLTMTNMDPVDTATYYCARMGSDYDVWFDYWGQGTLVTVSS VL: DIQMTQSPSTLSASVGDRVTITCRASKSISKYLAWYQQKPGKAPKLLIYSGSTLQSGVPSRFSGSGSGTEFTLTISSLQPDDFATYYCQQHLWGPYTFGGGTKVEIK | 140 |
| Phage # 67 Fab (IL-13-142 library) (Fab, V domains shown, Fab on phage pIX) VH: QVTLKESGPVLVKPTETLTLTCTVSGFSLSTYGMGVGWIRQPPGKALEWLAHIWWDDVKRYNPALKSRLTISKDTSKSQVVLTMTNMDPVDTATYYCARMGSDYDVWFDYWGQGTLVTVSS VL: DIQMTQSPSTLSASVGDRVTITCRASKSISKYLAWYQQKPGKAPKLLIYSGSTLQSGVPSRFSGSGSGTEFTLTISSLQPDDFATYYCQQPIDGPYTFGGGTKVEIK | 127 |
| Phage # 71 Fab (IL-13-142 library) (Fab, V domains shown, Fab on phage pIX) VH: QVTLKESGPVLVKPTETLTLTCTVSGFSLSTYGMGVGWIRQPPGKALEWLAHIWWDDVKRYNPALKSRLTISKDTSKSQVVLTMTNMDPVDTATYYCARMGSDYDVWFDYWGQGTLVTVSS VL: DIQMTQSPSTLSASVGDRVTITCRASKSISKYLAWYQQKPGKAPKLLIYSGSTLQSGVPSRFSGSGSGTEFTLTISSLQPDDFATYYCQQPLDSPYTFGGGTKVEIK | 208 |
| Phage # 39 Fab (IL-13-142 library) (Fab, V domains shown, Fab on phage pIX) VH: QVTLKESGPVLVKPTETLTLTCTVSGFSLSTYGMGVGWIRQPPGKALEWLAHIWWDDVKRYNPALKSRLTISKDTSKSQVVLTMTNMDPVDTATYYCARMGSDYDVWFDYWGQGTLVTVSS VL: DIQMTQSPSTLSASVGDRVTITCRASKSISKYLAWYQQKPGKAPKLLIYSGSTLQSGVPSRFSGSGSGTEFTLTISSLQPDDFATYYCQQHLGVPYTFGGGTKVEIK | 178 |
| Phage # 65 Fab (IL-13-142 library) (Fab, V domains shown, Fab on phage pIX) VH: QVTLKESGPVLVKPTETLTLTCTVSGFSLSTYGMGVGWIRQPPGKALEWLAHIWWDDVKRYNPALKSRLTISKDTSKSQVVLTMTNMDPVDTATYYCARMGSDYDVWFDYWGQGTLVTVSS VL: DIQMTQSPSTLSASVGDRVTITCRASKSISKYLAWYQQKPGKAPKLLIYSGSTLQSGVPSRFSGSGSGTEFTLTISSLQPDDFATYYCQQHDFVPYTFGGGTKVEIK | 147 |
| Phage # 31 Fab (IL-13-142 library) (Fab, V domains shown, Fab on phage pIX) VH: QVTLKESGPVLVKPTETLTLTCTVSGFSLSTYGMGVGWIRQPPGKALEWLAHIWWDDVKRYNPALKSRLTISKDTSKSQVVLTMTNMDPVDTATYYCARMGSDYDVWFDYWGQGTLVTVSS VL: DIQMTQSPSTLSASVGDRVTITCRASKSISKYLAWYQQKPGKAPKLLIYSGSTLQSGVPSRFSGSGSGTEFTLTISSLQPDDFATYYCQQHFRRPYTFGGGTKVEIK | 288 |
| Phage # 61 Fab (IL-13-142 library) (Fab, V domains shown, Fab on phage pIX) VH: QVTLKESGPVLVKPTETLTLTCTVSGFSLSTYGMGVGWIRQPPGKALEWLAHIWWDDVKRYNPALKSRLTISKDTSKSQVVLTMTNMDPVDTATYYCARMGSDYDVWFDYWGQGTLVTVSS VL: DIQMTQSPSTLSASVGDRVTITCRASKSISKYLAWYQQKPGKAPKLLIYSGSTLQSGVPSRFSGSGSGTEFTLTISSLQPDDFATYYCQQHLFTPYTFGGGTKVEIK | 245 |
| Phage # 40 Fab (IL-13-142 library) (Fab, V domains shown, Fab on phage pIX) VH: QVTLKESGPVLVKPTETLTLTCTVSGFSLSTYGMGVGWIRQPPGKALEWLAHIWWDDVKRYNPALKSRLTISKDTSKSQVVLTMTNMDPVDTATYYCARMGSDYDVWFDYWGQGTLVTVSS VL: DIQMTQSPSTLSASVGDRVTITCRASKSISKYLAWYQQKPGKAPKLLIYSGSTLQSGVPSRFSGSGSGTEFTLTISSLQPDDFATYYCQQHSRGPYTFGGGTKVEIK | 179 |
| Phage # 56 Fab (IL-13-142 library) (Fab, V domains shown, Fab on phage pIX) VH: QVTLKESGPVLVKPTETLTLTCTVSGFSLSTYGMGVGWIRQPPGKALEWLAHIWWDDVKRYNPALKSRLTISKDTSKSQVVLTMTNMDPVDTATYYCARMGSDYDVWFDYWGQGTLVTVSS VL: DIQMTQSPSTLSASVGDRVTITCRASKSISKYLAWYQQKPGKAPKLLIYSGSTLQSGVPSRFSGSGSGTEFTLTISSLQPDDFATYYCQQHWDAPYTFGGGTKVEIK | 234 |
| Phage # 32 Fab (IL-13-142 library) (Fab, V domains shown, Fab on phage pIX) VH: QVTLKESGPVLVKPTETLTLTCTVSGFSLSTYGMGVGWIRQPPGKALEWLAHIWWDDVKRYNPALKSRLTISKDTSKSQVVLTMTNMDPVDTATYYCARMGSDYDVWFDYWGQGTLVTVSS VL: DIQMTQSPSTLSASVGDRVTITCRASKSISKYLAWYQQKPGKAPKLLIYSGSTLQSGVPSRFSGSGSGTEFTLTISSLQPDDFATYYCQQHLGTPYTFGGGTKVEIK | 228 |
| Phage # 47 Fab (IL-13-142 library) (Fab, V domains shown, Fab on phage pIX) VH: QVTLKESGPVLVKPTETLTLTCTVSGFSLSTYGMGVGWIRQPPGKALEWLAHIWWDDVKRYNPALKSRLTISKDTSKSQVVLTMTNMDPVDTATYYCARMGSDYDVWFDYWGQGTLVTVSS VL: DIQMTQSPSTLSASVGDRVTITCRASKSISKYLAWYQQKPGKAPKLLIYSGSTLQSGVPSRFSGSGSGTEFTLTISSLQPDDFATYYCQQLTYEPYTFGGGTKVEIK | 233 |
| Phage # 46 Fab (IL-13-142 library) (Fab, V domains shown, Fab on phage pIX) VH: QVTLKESGPVLVKPTETLTLTCTVSGFSLSTYGMGVGWIRQPPGKALEWLAHIWWDDVKRYNPALKSRLTISKDTSKSQVVLTMTNMDPVDTATYYCARMGSDYDVWFDYWGQGTLVTVSS VL: DIQMTQSPSTLSASVGDRVTITCRASKSISKYLAWYQQKPGKAPKLLIYSGSTLQSGVPSRFSGSGSGTEFTLTISSLQPDDFATYYCQQHVTLPYTFGGGTKVEIK | 281 |
| Phage # 35 Fab (IL-13-142 library) (Fab, V domains shown, Fab on phage pIX) VH: QVTLKESGPVLVKPTETLTLTCTVSGFSLSTYGMGVGWIRQPPGKALEWLAHIWWDDVKRYNPALKSRLTISKDTSKSQVVLTMTNMDPVDTATYYCARMGSDYDVWFDYWGQGTLVTVSS VL: DIQMTQSPSTLSASVGDRVTITCRASKSISKYLAWYQQKPGKAPKLLIYSGSTLQSGVPSRFSGSGSGTEFTLTISSLQPDDFATYYCQQHDRGPYTFGGGTKVEIK | 296 |
| Phage # 55 Fab (IL-13-142 library) (Fab, V domains shown, Fab on phage pIX) VH: QVTLKESGPVLVKPTETLTLTCTVSGFSLSTYGMGVGWIRQPPGKALEWLAHIWWDDVKRYNPALKSRLTISKDTSKSQVVLTMTNMDPVDTATYYCARMGSDYDVWFDYWGQGTLVTVSS VL: DIQMTQSPSTLSASVGDRVTITCRASKSISKYLAWYQQKPGKAPKLLIYSGSTLQSGVPSRFSGSGSGTEFTLTISSLQPDDFATYYCQQHLTNPYTFGGGTKVEIK | 355 |
| Phage # 44 Fab (IL-13-142 library) (Fab, V domains shown, Fab on phage pIX) VH: QVTLKESGPVLVKPTETLTLTCTVSGFSLSTYGMGVGWIRQPPGKALEWLAHIWWDDVKRYNPALKSRLTISKDTSKSQVVLTMTNMDPVDTATYYCARMGSDYDVWFDYWGQGTLVTVSS VL: DIQMTQSPSTLSASVGDRVTITCRASKSISKYLAWYQQKPGKAPKLLIYSGSTLQSGVPSRFSGSGSGTEFTLTISSLQPDDFATYYCQQHDIGPYTFGGGTKVEIK | 240 |
| Phage # 70 Fab (IL-13-142 library) (Fab, V domains shown, Fab on phage pIX) VH: QVTLKESGPVLVKPTETLTLTCTVSGFSLSTYGMGVGWIRQPPGKALEWLAHIWWDDVKRYNPALKSRLTISKDTSKSQVVLTMTNMDPVDTATYYCARMGSDYDVWFDYWGQGTLVTVSS VL: DIQMTQSPSTLSASVGDRVTITCRASKSISKYLAWYQQKPGKAPKLLIYSGSTLQSGVPSRFSGSGSGTEFTLTISSLQPDDFATYYCQQHSWGPYTFGGGTKVEIK | 308 |
| Phage # 43 Fab (IL-13-142 library) (Fab, V domains shown, Fab on phage pIX) VH: QVTLKESGPVLVKPTETLTLTCTVSGFSLSTYGMGVGWIRQPPGKALEWLAHIWWDDVKRYNPALKSRLTISKDTSKSQVVLTMTNMDPVDTATYYCARMGSDYDVWFDYWGQGTLVTVSS VL: DIQMTQSPSTLSASVGDRVTITCRASKSISKYLAWYQQKPGKAPKLLIYSGSTLQSGVPSRFSGSGSGTEFTLTISSLQPDDFATYYCQQHLGQPYTFGGGTKVEIK | 205 |
| Phage # 57 Fab (IL-13-142 library) (Fab, V domains shown, Fab on phage pIX) VH: QVTLKESGPVLVKPTETLTLTCTVSGFSLSTYGMGVGWIRQPPGKALEWLAHIWWDDVKRYNPALKSRLTISKDTSKSQVVLTMTNMDPVDTATYYCARMGSDYDVWFDYWGQGTLVTVSS VL: DIQMTQSPSTLSASVGDRVTITCRASKSISKYLAWYQQKPGKAPKLLIYSGSTLQSGVPSRFSGSGSGTEFTLTISSLQPDDFATYYCQQHDWEPYTFGGGTKVEIK | 245 |
| Phage # 36 Fab (IL-13-142 library) (Fab, V domains shown, Fab on phage pIX) VH: QVTLKESGPVLVKPTETLTLTCTVSGFSLSTYGMGVGWIRQPPGKALEWLAHIWWDDVKRYNPALKSRLTISKDTSKSQVVLTMTNMDPVDTATYYCARMGSDYDVWFDYWGQGTLVTVSS VL: DIQMTQSPSTLSASVGDRVTITCRASKSISKYLAWYQQKPGKAPKLLIYSGSTLQSGVPSRFSGSGSGTEFTLTISSLQPDDFATYYCQQHELGPYTFGGGTKVEIK | 196 |
| Phage # 72 Fab (IL-13-142 library) (Fab, V domains shown, Fab on phage pIX) VH: QVTLKESGPVLVKPTETLTLTCTVSGFSLSTYGMGVGWIRQPPGKALEWLAHIWWDDVKRYNPALKSRLTISKDTSKSQVVLTMTNMDPVDTATYYCARMGSDYDVWFDYWGQGTLVTVSS VL: DIQMTQSPSTLSASVGDRVTITCRASKSISKYLAWYQQKPGKAPKLLIYSGSTLQSGVPSRFSGSGSGTEFTLTISSLQPDDFATYYCQQHNEGPYTFGGGTKVEIK | 114 |
| Phage # 51 Fab (IL-13-142 library) (Fab, V domains shown, Fab on phage pIX) VH: QVTLKESGPVLVKPTETLTLTCTVSGFSLSTYGMGVGWIRQPPGKALEWLAHIWWDDVKRYNPALKSRLTISKDTSKSQVVLTMTNMDPVDTATYYCARMGSDYDVWFDYWGQGTLVTVSS VL: DIQMTQSPSTLSASVGDRVTITCRASKSISKYLAWYQQKPGKAPKLLIYSGSTLQSGVPSRFSGSGSGTEFTLTISSLQPDDFATYYCQQHSAGPYTFGGGTKVEIK | 192 |
